Data reported in publication PMC7330677.

Experiments:
[1] = molecular target: Human CXCR4 (human) (UniProt P61073)
[2] = molecular target: CXCR4-FlAsH228 (human) (UniProt P61073)

“Recombinant human CXCL12 (from UniProt P48061 22-93) (ligand)” gave an EC50 of CXCL12 for Gi1 activation, one representative experiment of Fig. 1D [1] of 3.3 nM and an EC50 of CXCL12 for Gi1 activation, one representative experiment of Fig. 1D [2] of 14.7 nM.
